# In doi:10.1101/2024.04.20.590211 (bioRxiv, 2024):
# B1: hANP32A 144-249 (LCAR alone) (domain or fragment)
# chain: YLDGYDRDDKEAPDSDAEGYVEGLDDEEEDEDEEEYDEDAQVVEDEEDEDEEEEGEEEDVSGEEEEDEEGYNDGEVDDEEDEEELGEEERGQKRKREPEDEGEDDD
# Target: FluPolB, influenza B/Memphis/2003 polymerase heterotrimer (wild type) (influenza B virus B/Memphis/2003, UniProt Q5V8Z9;Q5V8Y6;Q5V8X3)
# Experiment: SEC
binder,measurement,value
B1,binding result,binds
